Test results published in article PMC5484391 (Cell, 2017).

Molecular target: the molecule itself
Experiment: cryo-EM structure

B1: hERGTs (human hERG, truncated construct lacking residues 141–380 and 871–1005) (natural protein, UniProt Q12809 1-1159, looked up)
chain: MPVRRGHVAPQNTFLDTIIRKFEGQSRKFIIANARVENCAVIYCNDGFCELCGYSRAEVMQRPCTCDFLHGPRTQRRAAAQIAQALLGAEERKVEIAFYRKDGSCFLCLVDVVPVKNEDGAVIMFILNFEVVMEKDMVGSGADVLPEYKLQAPRIHRWTILHYSPFKAVWDWLILLLVIYTAVFTPYSAAFLLKETEEGPPATECGYACQPLAVVDLIVDIMFIVDILINFRTTYVNANEEVVSHPGRIAVHYFKGWFLIDMVAAIPFDLLIFGSGSEELIGLLKTARLLRLVRVARKLDRYSEYGAAVLFLLMCTFALIAHWLACIWYAIGNMEQPHMDSRIGWLHNLGDQIGKPYNSSGLGGPSIKDKYVTALYFTFSSLTSVGFGNVSPNTNSEKIFSICVMLIGSLMYASIFGNVSAIIQRLYSGTARYHTQMLRVREFIRFHQIPNPLRQRLEEYFQHAWSYTNGIDMNAVLKGFPECLQADICLHLNRSLLQHCKPFRGATKGCLRALAMKFKTTHAPPGDTLVHAGDLLTALYFISRGSIEILRGDVVVAILGKNDIFGEPLNLYARPGKSNGDVRALTYCDLHKIHRDDLLEVLDMYPEFSDHFWSSLEITFNLRDTNMIPGGRQYQELPRCPAPTPSLLNIPLSSPGRRPRGDVESRLDALQRQLNRLETRLSADMATVLQLLQRQMTLVPPAYSAVTTPGPGPTSTSPLLPVSPLPTLTLDSLSQVSQFMACEELPPGAPELPQEGPTRRLSLPGQLGALTSQPLHRHGSDPGS
binding result: binds
